Measurements reported in article PMC4575080, “Biophysical Studies on BEX3, the p75^NTR-Associated Cell Death Executor, Reveal a High-Order Oligomer with Partially Folded Regions” (PLoS ONE, 2015).

B2: Brain Expressed X-linked protein 3 (BEX3) (natural protein, UniProt Q9WTZ9 1-124, looked up)
chain: MANVHQENEEMEQPLQNGQEDRPVGGGEGHQPAANNNNNNHNHNHNHHRRGQARRLAPNFRWAIPNRQMNDGLGGDGDDMEMFMEEMREIRRKLRELQLRNCLRILMGELSNHHDHHDEFCLMP
notes: BEX3 (NADE), cDNA encoding 'the mature BEX3' in pET21d; UniProt Q9WTZ9 is printed in the introduction for BEX3; High-order oligomer in native buffer; also called NADE; p75NTR-associated cell death executor

Columns and labels:
[1] = target: B2; assay: SPR; p75NTR DD (13 uM) amine-coupled to a CM5 chip (4,000 RU), Biacore X; BEX3 0.2-0.8 uM injected in Buffer A (25 mM MES pH 7.0, 150 mM NaCl, 6 mM beta-ME), 10 uL/min; global fit; apparent Kd = koff/kon; conditions: both partners purified
[2] = target: the molecule itself; assay: SDS-PAGE (SDS-resistant oligomer); refolded BEX3 on SDS-PAGE, before and after addition of 4 or 7 M urea to the sample loading buffer

B1: death domain of p75NTR (amino acids 326 to 417) (domain or fragment, UniProt Q9Z0W1 326-417, looked up)
chain: TASGQALKGDGNLYSSLPLTKREEVEKLLNGDTWRHLAGELGYQPEHIDSFTHEACPVRALLASWGAQDSATLDALLAALRRIQRADIVESL
notes: neurotrophin receptor p75 (p75NTR), death domain, amino acids 326 to 417; UniProt Q9Z0W1 is printed in the introduction for p75NTR; For some experiments the His-tag was removed with TEV protease; also called p75NTR DD; His-p75NTR DD
For B1, the Kd [1] was 550 nM.

In the case of B2, the “stoichiometry N” value [2] is reported as 2.
